The source of these data is patent US20160052998A1 (GlaxoSmithKline, published 2016).

First the molecules themselves.
B1: Rat Serum Albumin (other, UniProt P02770 25-608, looked up)
chain: EAHKSEIAHRFKDLGEQHFKGLVLIAFSQYLQKCPYEEHIKLVQEVTDFAKTCVADENAENCDKSIHTLFGDKLCAIPKLRDNYGELADCCAKQEPERNECFLQHKDDNPNLPPFQRPEAEAMCTSFQENPTSFLGHYLHEVARRHPYFYAPELLYYAEKYNEVLTQCCTESDKAACLTPKLDAVKEKALVAAVRQRMKCSSMQRFGERAFKAWAVARMSQRFPNAEFAEITKLATDVTKINKECCHGDLLECADDRAELAKYMCENQATISSKLQACCDKPVLQKSQCLAEIEHDNIPADLPSIAADFVEDKEVCKNYAEAKDVFLGTFLYEYSRRHPDYSVSLLLRLAKKYEATLEKCCAEGDPPACYGTVLAEFQPLVEEPKNLVKTNCELYEKLGEYGFQNAVLVRYTQKAPQVSTPTLVEAARNLGRVGTKCCTLPEAQRLPCVEDYLSAILNRLCVLHEKTPVSEKVTKCCSGSLVERRPCFSALTVDETYVPKEFKAETFTFHSDICTLPDKEKQIKKQTALAELVKHKPKATEDQLKTVMGDFAQFVDKCCKAADKDNCFATEGPNLVARSKEALA
notes: mature; 'mature' inferred from purified serum protein; also called RSA; rat SA

Values joined by “and” are separate entries in the source; they are usually repeats but may differ in a detail not shown here. Identical values can stand only once.

Test [1] concerns the target T1, DOM7h-11-15/Exendin-4 fusion DMS number 7143.
T1 construct: Exendin-4 - (G4S)3 - AlbudAb, made in HEK293E; also called DMS7143
In words: SPR (BIAcore); KD as listed in PK table. (In general: In SPR one partner is held on a chip, and binding of the other changes the refractive index at the surface.)

Test [2] deals with T2, Human Serum Albumin (human, UniProt P02768 25-609).
T2 construct: also called HSA; human SA
Put plainly: SPR (BIAcore), albumin amine-coupled to CM5 chip.

In test [3] the target is T3, mouse serum albumin (mouse, UniProt P07724 25-608).
T3 construct: mature; 'mature' inferred from purified serum protein; also called MSA; mouse SA
Put plainly: SPR (BIAcore), albumin amine-coupled to CM5 chip.

Test [4] concerns the target T4, Cynomolgus monkey Serum Albumin (Cynomolgus monkey, UniProt A2V9Z4 25-608).
T4 construct: mature; 'mature' inferred from purification out of serum; also called CSA; cyno serum albumin
In words: SPR (BIAcore), albumin amine-coupled to CM5 chip.

In test [5] the target is B1. Put plainly: SPR (BIAcore), albumin amine-coupled to CM5 chip.
Test [6] addresses T2, Human Serum Albumin. Put plainly: SPR (BIAcore), albumin amine-coupled to CM5 chip; no KD given.
Test [7] concerns the target T3, mouse serum albumin. The description is as above.
Test [8] has as its target T4, Cynomolgus monkey Serum Albumin. Described as above.
Test [9] deals with B1. The test is described as above.
In test [10] the target is T3, mouse serum albumin. In words: SPR (BIAcore); multiple independent measurements (first of two values of 12).
Test [11] concerns the target T3, mouse serum albumin. In words: SPR (BIAcore); multiple independent measurements.
The target of test [12] is T3, mouse serum albumin. Put plainly: SPR (BIAcore); multiple independent measurements (second of two values of 12).

As usually defined, the Kd is the equilibrium constant for the complex coming apart. In turn, B1 came in with a Kd in test [1] of 273 nM.

B2: DOM7r-92-4 (other)
VH: EVQLLESGGGLVQPGGSLRLSCAASGFTFDTSSMLWVRQAPGKGLEWVSVIHQSGTPTYYADSVKGRFTISRDNSKNTLYLQMNSLRAEDTAVYYCAKFPSTHGKFDYWGQGTLVTVSS
notes: Anti-serum albumin VH dAb (VH AlbudAb); also called DOM7h-92-4
Consider B2, for which the Kd came to 130 nM in the test with Human Serum Albumin [2], 110 nM in the test with mouse serum albumin [3], 98 nM in [4] and 260 nM with Rat Serum Albumin [5].

B3: DOM7r31 (other)
VH: EVQLLESGGGLVQPGGSLRLSCTASGFTFRHYRMGWVRQAPGKGLEWVSWIRPDGTFTYYADSVKGRFTISRDNSKNTLYLQMNSLRAEDTAVYYCAKSYMGDRFDYWGQGTLVTVSS
notes: Anti-serum albumin VH dAb (VH AlbudAb)
Consider B3, for which the binding result (with Human Serum Albumin [6]; with mouse serum albumin [7]; in test [8]; in the test with Rat Serum Albumin [9]) was “binds” in each case.

B4: DOM7r-31-14 (other)
VH: EVQLLESGGGLVQPGGSLRLSCTASGFTFRHYRMGWVRQAPGKGLEWVSWIRPDGTFTYYADSVKGRFTISRDNSKNTLYLQMNSLRAEDTAVYYCAKSYMADRFDYWGQGTLVTVSS
notes: as for B3
B4: the equilibrium dissociation constant (Kd) in the test with mouse serum albumin [10] is 12 nM; with mouse serum albumin [11], 6 nM and 14.2 nM; with mouse serum albumin [12], 12 nM.
